Data published in the DeepSol protein solubility set.

Assay: soluble on expression in E. coli; label from the status in PepcDB or PDB records

Row | Sequence | soluble on expression in E. coli
1 | MSLTPSIISIQSQVVHGHVGNSAAVLPMQGHGVTVAAVPTTLLSNHPGFETVRGRVLESELVGDLLRGVEERGLIETSGYIVSGYLGSRANGEVVASFVKRARRLNPDITYICDPVMGDAALGVFVADQVVSCLCDDLIPLADLLTPNQFEVGLIAGRPLSTWRELEAAVLKIRAPRGARLVVTGCALSDTPDGALENIVFDDKTHTRLTSPRLPLAPAGTGDLYTGLLTAKLARGHTLVEAACHAATSVLDVLQQTMAAGEHEMQLARAITTLGPACKETSEGHHHHHH | soluble
2 | MGSDKIHHHHHHKRQVSGDESYLDAAPLAELHAPAGMILPITTGDYVIPVTKGSGAVGKALDIRPPAQPLALVSGARTQFSGDTATLLVENGRSSTLWPQVVSVIQAKNYPIEKRDDASQTLTTDWVNWNRLDEDEQYRGRYQISVKPQGYQQAVTVKLVNLEQAGKPVADAASLQRYSTEMMNVISAGLDKTATDAANAAQNRSAATMDVQSAADDTGLPMLVVRGPFNLVWQRLPAALEKVGMKVTDSTRSQGSMAVTYKPLSDSDWRDLGASDPGLASGDYKLQVGDLDNRSSLQFIDPKGHTLTQSQNDALVAVFQAAFNK | not soluble
3 | MFENLTDRLSKTLKNISGKGRLTEDNIKDTLREVRMALLEADVALPVVRDFVNRVKEGAVGVEVSKSLTPGQEFIKIVRQQLEAVMGESNEALNLAAQPPAVILMAGLQGAGKTTSVGKLSKLLKERDKKKVLVVSADVYRPAAIKQLETLANDLGVDFFPSTPDQKPIDIANAAIDHAKKKFYDVLIVDTAGRLAIDEQMMAEIQALHKAINPVETLFVVDAMTGQDAADTAKAFGDALPLTGVILTKVDGDARGGAALSVRHITGKPIKFIGVGEKTDALEPFHPDRIASRILGMGDVLSLIEDLQRNVDQEKAEKLAKKFKEKKGFDLEDFREQLGQMKNMGGMMGMLDKLPGMSQLPADMKDKVDDRVFKQMEAIINSMTMKERQNPDLIKGSRKKRIAAGSGTQVQDVNRLLKQFTQMQKMMKKMQQGGMKGMMRNMQGLMGGGGRGGFGGGFFGR | not soluble
4 | MNVNKPTTEKKLIDLNNDIIHNFDVSIVMSFYKRYTEFRKVLPHNAPYLQRNGIEVIIVLDDPDEKSELLMLLQNYPFINWKLIINERKHAPRNHASVLNVGLKHATKKYILQIDPEVEFLTDIIWQMRDAIEKYPMHYILAMMAYVPYEQELTENNIKELDFIPWGNLMVERNHLYKLHGYDETFITWGGEDNNMRARLDMSGIKKFILPEAKTIHREKNYDPNERSKRINKHSISDWRKMNYPSEAIANKDIWGSEFNKVIYDWQDNQYAKDLCYTYLQQFIGFEIRHPAAFRKRHKKIVLCQAYNEEKLIEGFLTNMANYFDGIILLDDESTDRTWDLAIHDKIILKVKKKRSGFNDLENRNILLDLSAFFQSEWFCFMDIDERFDERFTNFSEFENNKEIHVVSFRGVYLWNDEQSYKGDIPNSNKGILTVYRMFRPIGHTHINTHKKLHFIATPYFTNTWQSNILFKDYGSMKENDRIRKYERYIQEDQQKDMSSGYDYLLNSENLYQLDKIEEYLEHHHHHH | not soluble
5 | MEYTQIPSFALYNNASIFQFFPRNKRLSTHQKSCLDEHARKMAVFMMERQEEYRYYENLANQEQFSDDACFSDTGMDSGFCSGDTSTGQSASTSPAPAHLIPNPFFDPEYVASKTTMKLVANPFYNPKLAKEIKKKSTHTSKFQ | not soluble
6 | PISSEQKQLISQLTDLGYSFDGLQTGYPGGEPDWHYVKELSGIEEKDLIKSFSKKGKPLVKKAKTFGIKLKKLKRDELSIFKEITSATSDRREYSDKSLDYYQDFYDAFGDNADFMVATLNFQDYFDHLESNQAKLRARIVKLQADLETNPTSEKKQNQLRELSSQLETFDVRKGEATAFIDKYGQEDIVLAGSLFVYTPQEAVYLFSGSYPEFNKFYAPALLQEYVMTQAIKRGIGFYNFLGIMGIFDGSDGVLRFKQNFNGYIVRKMGTFRYYPQPLKYKAIQGVKKLLGRN | not soluble
7 | MLTPRDENNEGDAMPMLKKPRYSSLSGQSTNITYQEHTISREERAAAVGRHEGFRGCTIWFTGLSGAGKTTISFALERTLNKLGIPCYGLDGDNIRHGLCKNLGFSKEDRQENIRRVAEVAKLFADSGMICLAAFISPFQEDRLDARKIHESENVKFIEVHVSTTLEVCEQRDPKQLYKKARAGQILGFTGIDSAYEPPENAEIILDAGKDGVQQCVQKVLDHLESKGLLPEQIPDVPAVRELFVSDDLTVAELLKESQNLPTVELTKVDLQWLQVLAEGWATPLSGFMRERQYLQSMHFGQLLDLKHKVAFVGEKSDDKEDSWPMMDDINQSIPIVLPISDDVKKGLEGVTRIALKYNGQVYAILSDPEIFEHRKDERVCRQFGTNDPRHPAVAQVLESGNWLLGGDVAVVQKIQFNDGLDKYRKTPNELRAIFAEKNADAVFAFQLRNPIHNGHALLMRDTREKLLAEHKNPILLLHPLGGWTKDDDVPLDIRIKQHEAVIAERVLDPEWTVLSIFPSPMMYAGPTEVQWHARSRIAAGIQHYIVGRDPAGIQKPGSPDALYETTHGAKVLSMAPGLSALHILPFRVAAYDKTAKKMSFFDTSRKEDFENISGTKMRGLARNGDTPPEGFMAPTAWEVLAGYYKSLQNSN | not soluble
8 | MGSDKIHHHHHHMLNSQSKLDQEVIEGIHRIRENGVLPFIATGRGHFELDEIMSLTGISGAVAMNGQYIVLDGETIYKEEIPTSSVEKLLEAASPHSEALSFYDSQGYWVSELTDLAKTAYAYTHMPMPQADARRYLSQEVNMLLVLTNQLSQVDYYKERVPELNFFMNSPSSIDVTNSTTNKGTGINHVKEVLNFTGQTFAFGDGRNDLDLFKAADHRTAMGNAVPELKELADFISTENTNHGIINAFNHWGIM | not soluble
9 | MKGNYVQVYVMLPLDAVSVNNRFEKGDELRAQLRKLVEAGVDGVMVDVWWGLVEGKGPKAYDWSAYKQLFELVQKAGLKLQAIMSFHQCGGNVGDAVNIPIPQWVRDVGTRDPDIFYTDGHGTRNIEYLTLGVDNQPLFHGRSAVQMYADYMTSFRENMKDFLDAGVIVDIEVGLGPAGELRYPSYPQSHGWSFPGIGEFICYDKYLQADFKAAAAAVGHPEWEFPNDAGQYNDTPERTQFFRDNGTYLSEKGRFFLAWYSNNLIKHGDRILDEANKVFLGYKVQLAIKIAGVHWWYKVPSHAAELTAGYYNLHDRDGYRTIARMLKRHRASINFTCAEMRDSEQPPDAMSAPEELVQQVLSAGWREGLNVSCENALPRYDPTAYNTILRNARPHGINQSGPPEHKLFGFTYLRLSNQLVEGQNYVNFKTFVDRMHANLPRDPYVDPMAPLPRSGPEISIEMILQAAQPKIQPFPFQEHTDLPVGPTGGMGGQAEGPTCG | soluble
10 | MAMIKVDQHYFELIENYRECFNEEQFIARYSDILDKYDYIVGDYGYDQLRLKGFYKDSNKKAEMSKRFSNIQDYIFEYCNFGCPYFVLRHLSKQEVKKLIEEVHPSDVIDDDNKLQDVKIKPTIQDTEHLEHHHHHH | soluble
11 | MGSDKIHHHHHHMGNTVAMILAGGQGTRLGVLTERIAKPAVPFGGKYRLIDFTLSNCVNSGIYRVGVLTQYRPHVLSKHIGIGRPWDLDRKDGGVEILPPYVGRHESDWYKGTANAVYQNLEFLEENDAELVLILSGDHVYAMNYNDLIDYHLLKEADGTIACMEVPIEEASRFGIMITDVDGRIVDFEEKPAKPRSNLASLGIYVFNYEFLKKVLIEDENDPNSSHDFGKDVIPRILRENLGSLYAFRFDGYWRDVGTLRSYWEANLELVLPVPPFNLYDPNWRFFTHTEEMPPAYVAPGSKVSTSLVSEGAEVYGNVFNSVIFQGVKIGRGTVVKNSVIMTRTEIGENCYLENVIIAENVKIGSNVRMGVGEDAESKLDPKVYSGLLTVVGMNSVIPDDMVIGKNCVIGIGVRPEDFKSKTLESGDYVIVREE | not soluble
12 | GSHMASMTGGQQMGRGSNNGDICIKDSINTLWTGINPPPNCQIVENTNTNDGKLTLVLVKNGGLVNGYVSLVGVSDTVNQMFTQKTANIQLRLYFDSSGNLLTEESDLKIPLKNKSSTATSETVASSKAFMPSTTAYPFNTTTRDSENYIHGICYYMTSYDRSLFPLNISIMLNSRMISSNVAYAIQFEWNLNASESPESNIATLTTSPFFFSYITEDDN | soluble
